Measurements published in patent US20260174875A1 (Novo Nordisk A/S, priority 2023, published 2026).
Numbered stars: 1 amine (or outer) side, 2 acyl side, 3 side chain; on linkers, the order of the positions; unused ones are H or OH. Square brackets hold non-standard residues; d marks the D form. Side chains are listed from the residue outwards. * marks the point of attachment. C20 diacid = O=C(O)CCCCCCCCCCCCCCCCCCC(=O)*; C18 diacid = O=C(O)CCCCCCCCCCCCCCCCC(=O)*; C16 diacid = O=C(O)CCCCCCCCCCCCCCC(=O)*; γGlu = O=C(O)[C@H](CCC(=O)[*:2])N[*:1]; Chem. 28 = not defined here; AEEA = NCCOCCOCC(=O)O; Aib = CC(C)(N)C(=O)O

T1: human GIP receptor (human, UniProt P48546 22-466)
T1 sequence (looked up): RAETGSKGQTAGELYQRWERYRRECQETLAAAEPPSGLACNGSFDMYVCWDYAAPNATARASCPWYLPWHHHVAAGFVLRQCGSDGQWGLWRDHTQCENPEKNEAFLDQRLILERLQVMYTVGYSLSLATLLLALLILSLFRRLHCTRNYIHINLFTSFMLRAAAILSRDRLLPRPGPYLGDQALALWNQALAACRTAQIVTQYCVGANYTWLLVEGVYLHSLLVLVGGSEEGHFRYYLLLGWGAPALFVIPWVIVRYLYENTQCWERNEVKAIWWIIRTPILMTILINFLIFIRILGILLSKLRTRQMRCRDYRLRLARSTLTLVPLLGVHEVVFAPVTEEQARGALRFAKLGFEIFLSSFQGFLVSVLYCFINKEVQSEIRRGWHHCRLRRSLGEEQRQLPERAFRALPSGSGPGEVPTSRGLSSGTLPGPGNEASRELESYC

T2: human amylin-3(a) receptor (human, UniProt P30988 25-474; O60896 24-148)
T2 sequence (looked up) 1: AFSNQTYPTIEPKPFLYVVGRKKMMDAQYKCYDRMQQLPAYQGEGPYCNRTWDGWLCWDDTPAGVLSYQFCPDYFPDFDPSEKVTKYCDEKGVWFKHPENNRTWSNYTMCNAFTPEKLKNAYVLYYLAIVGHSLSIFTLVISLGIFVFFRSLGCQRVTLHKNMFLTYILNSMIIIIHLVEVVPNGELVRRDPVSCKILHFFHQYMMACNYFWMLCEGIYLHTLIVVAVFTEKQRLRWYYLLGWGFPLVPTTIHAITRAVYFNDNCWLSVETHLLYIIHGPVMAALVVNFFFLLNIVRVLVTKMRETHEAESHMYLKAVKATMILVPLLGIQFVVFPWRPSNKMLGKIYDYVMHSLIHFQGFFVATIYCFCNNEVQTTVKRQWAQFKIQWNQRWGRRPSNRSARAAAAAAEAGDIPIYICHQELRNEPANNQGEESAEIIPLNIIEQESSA
T2 sequence (looked up) 2: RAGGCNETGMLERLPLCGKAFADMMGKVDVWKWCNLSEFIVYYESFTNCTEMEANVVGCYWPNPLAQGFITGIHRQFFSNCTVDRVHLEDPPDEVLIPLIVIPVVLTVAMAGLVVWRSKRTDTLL


What was measured:
Experiment in all cases: cell-based or functional assay
human GIP receptor [1] = target: T1, human GIP receptor
human GLP-1 receptor [2] = target: T3, human GLP-1 receptor (human, UniProt P43220 24-463)
[3] = target: T2, human amylin-3(a) receptor
human GIP receptor [4] = target: T1, human GIP receptor; remark: listed apart in the source
human GLP-1 receptor [5] = target: T3, human GLP-1 receptor; remark: listed apart in the source
[6] = target: T2, human amylin-3(a) receptor; remark: listed apart in the source

| Binder | hGIPR Potency, 1% HSA, EC50 [pM] (human GIP receptor [1]) | hGLP-1R Potency, 1% HSA, EC50 [pM] (human GLP-1 receptor [2]) | hAMYR3 Potency, 1% HSA, EC50 [pM] [3] [pM] | hGIPR Potency, no HSA, EC50 [pM] (human GIP receptor [4]) | hGLP-1R Potency, no HSA, EC50 [pM] (human GLP-1 receptor [5]) | hAMYR3 Potency, no HSA, EC50 [pM] [6] [pM] |
| --- | --- | --- | --- | --- | --- | --- |
| Compound 60 (peptide) peptide: Y[Aib]EGTFTSDYSILLEEQAAREFIEWLLAGGPSSGALAQTLAQTLASHLSTAQTQRLSAELHK([AEEA-AEEA-γGlu-C20 diacid])LATLPRTETGSGSP-NH2 | 28.3 | 173 | 191 | 6.06 | 94.4 | 3.85 |
| Compound 55 (reading uncertain) peptide: Y[Aib]EGTFTSDYSILLEEQAAREFIEWLLAGGPSSGAGQAPGQAPGASHLSTAQTQRLSAK(Chem. 28)LHRLATLPRTETGSGSP-NH2 | 10.3 | 45.3 | 34 | 3 | 23 | 2.22 |
| Compound 51 (reading uncertain) peptide: H[Aib]HGTFTSDYSILLEEQAAREFIEWLLAGGPSSGALAQTLAQTLASHLSTAQTQRLSAELHK(Chem. 28)LATLPRTETGSGSP-NH2 | 61.9 | 32.2 | 57.1 | 8.37 | 7.68 | 6.19 |
| Compound 59 (peptide) peptide: Y[Aib]EGTFTSDYSILLEEQAAREFIEWLLAGGPSSGALAQTLAQTLASHLSTAQTQRLSAELHK([AEEA-AEEA-γGlu-C16 diacid])LATLPRTETGSGSP-NH2 | 27.2 | 39.8 | 24.2 | 7.72 | 50.6 | 3.85 |
| Compound 57 (reading uncertain) peptide: Y[Aib]EGTFTSDYSILLEEQAAREFIEWLLAGGPSSGAGQAPGQAPGASHLSTAQTQRLSAELHRLATLPK(Chem. 28)TETGSGSP-NH2 | 5.85 | 29.6 | 85 | 1.98 | 12.8 | 3 |

Second part, the binder after the results:

| hGIPR Potency, 1% HSA, EC50 [pM] (human GIP receptor [1]) | hGLP-1R Potency, 1% HSA, EC50 [pM] (human GLP-1 receptor [2]) | hAMYR3 Potency, 1% HSA, EC50 [pM] [3] [pM] | hGIPR Potency, no HSA, EC50 [pM] (human GIP receptor [4]) | hGLP-1R Potency, no HSA, EC50 [pM] (human GLP-1 receptor [5]) | hAMYR3 Potency, no HSA, EC50 [pM] [6] [pM] | Binder |
| --- | --- | --- | --- | --- | --- | --- |
| 47.2 | 11.5 | 28.8 | 2.26 | 4.13 | 3.35 | Compound 62 (peptide) peptide: H[Aib]HGTFTSDYSILLEEQAAREFIEWLLAGGPSK([AEEA-AEEA-γGlu-C16 diacid])GEASQLSTAALGRLSAELHRLADLPRTETGSGSP-NH2 |
| 100 | 67.8 | 109 | 2.03 | 3.71 | 1.91 | Compound 64 (peptide) peptide: H[Aib]HGTFTSDYSILLEEQAAREFIEWLLAGGPSK([AEEA-AEEA-γGlu-C18 diacid])GEASQLSTAALGRLSAELHQLATLPRTETGSGSP-NH2 |
| 118 | 100 | 127 | 1.89 | 4.86 | 2.84 | Compound 65 (peptide) peptide: H[Aib]HGTFTSDYSILLEEQAAREFIEWLLAGGPSK([AEEA-AEEA-γGlu-C18 diacid])GEASQLSTAALGRLSAELHGLATLPRTETGSGSP-NH2 |
